ChEMBL document CHEMBL1212771, “BEL-2, an extended-spectrum beta-lactamase with increased activity toward expanded-spectrum cephalosporins in Pseudomonas aeruginosa” (Antimicrob Agents Chemother, 2010)
Values after ≈ are worked out from the molar mass of the structure shown.

Tests used:
Pseudomonas aeruginosa [1] = test: Antimicrobial activity against Pseudomonas aeruginosa 531 expressing beta-lactamase BEL-2 by solid agar dilution method; format: functional
Escherichia coli [2] = test: Antimicrobial activity against Escherichia coli TOP10 by solid agar dilution method; format: functional
Pseudomonas aeruginosa [3] = test: Antimicrobial activity against Pseudomonas aeruginosa 51170 expressing beta-lactamase BEL-1 by solid agar dilution method; format: functional
Escherichia coli [4] = test: Antimicrobial activity against Escherichia coli TOP10 expressing recombinant beta-lactamase BEL-2 by solid agar dilution method; format: functional
Escherichia coli [5] = test: Antimicrobial activity against Escherichia coli TOP10 expressing recombinant beta-lactamase BEL-1 by solid agar dilution method; format: functional
Pseudomonas aeruginosa [6] = test: Ratio of Km for Pseudomonas aeruginosa 51170 beta-lactamase BEL-1 to Km for Pseudomonas aeruginosa 531 beta-lactamase BEL-2
[7] = substrate: CC1(C)S[C@@H]2[C@H](NC(=O)Cc3ccccc3)C(=O)N2[C@H]1C(=O)O; test: (§1) Ratio of Kcat to Km for Pseudomonas aeruginosa 531 beta-lactamase BEL-2
[8] = substrate: CC(=O)OCC1=C(C(=O)O)N2C(=O)[C@@H](NC(=O)Cc3cccs3)[C@H]2SC1; test: as §1
[9] = substrate: CC(C)(O/N=C(\C(=O)N[C@@H]1C(=O)N2C(C(=O)[O-])=C(C[n+]3ccccc3)CS[C@H]12)c1csc(N)n1)C(=O)O; test: as §1
[10] = substrate: CCN1CCN(C(=O)N[C@@H](C(=O)N[C@@H]2C(=O)N3[C@@H]2SC(C)(C)[C@@H]3C(=O)O)c2ccccc2)C(=O)C1=O; test: as §1
[11] = substrate: CO/N=C(\C(=O)N[C@@H]1C(=O)N2C(C(=O)O)=C(COC(C)=O)CS[C@H]12)c1csc(N)n1; test: as §1
[12] = substrate: C[C@H]1[C@H](NC(=O)/C(=N\OC(C)(C)C(=O)O)c2csc(N)n2)C(=O)N1S(=O)(=O)O; test: as §1
[13] = substrate: O=C(Cc1cccs1)N[C@@H]1C(=O)N2C(C(=O)[O-])=C(C[n+]3ccccc3)CS[C@H]12; test: as §1
[14] = substrate: CO/N=C(\C(=O)N[C@@H]1C(=O)N2C(C(=O)[O-])=C(C[N+]3(C)CCCC3)CS[C@H]12)c1csc(N)n1; test: as §1
[15] = substrate: CO/N=C(\C(=O)N[C@@H]1C(=O)N2C(C(=O)O)=C(COC(N)=O)CS[C@H]12)c1ccco1; test: as §1
[16] = substrate: CC1(C)S[C@@H]2[C@H](NC(=O)Cc3ccccc3)C(=O)N2[C@H]1C(=O)O; test: (§2) Activity at Pseudomonas aeruginosa 531 beta-lactamase BEL-2
[17] = substrate: CC(=O)OCC1=C(C(=O)O)N2C(=O)[C@@H](NC(=O)Cc3cccs3)[C@H]2SC1; test: as §2
[18] = substrate: CO[C@@]1(NC(=O)Cc2cccs2)C(=O)N2C(C(=O)O)=C(COC(N)=O)CS[C@@H]21; test: as §2
[19] = substrate: CC(C)(O/N=C(\C(=O)N[C@@H]1C(=O)N2C(C(=O)[O-])=C(C[n+]3ccccc3)CS[C@H]12)c1csc(N)n1)C(=O)O; test: as §2
[20] = substrate: C[C@@H](O)[C@H]1C(=O)N2C(C(=O)O)=C(SCCNC=N)C[C@H]12; test: as §2
[21] = substrate: CCN1CCN(C(=O)N[C@@H](C(=O)N[C@@H]2C(=O)N3[C@@H]2SC(C)(C)[C@@H]3C(=O)O)c2ccccc2)C(=O)C1=O; test: as §2
[22] = substrate: CO/N=C(\C(=O)N[C@@H]1C(=O)N2C(C(=O)O)=C(COC(C)=O)CS[C@H]12)c1csc(N)n1; test: as §2
[23] = substrate: C[C@H]1[C@H](NC(=O)/C(=N\OC(C)(C)C(=O)O)c2csc(N)n2)C(=O)N1S(=O)(=O)O; test: as §2
[24] = substrate: O=C(Cc1cccs1)N[C@@H]1C(=O)N2C(C(=O)[O-])=C(C[n+]3ccccc3)CS[C@H]12; test: as §2
[25] = substrate: CO/N=C(\C(=O)N[C@@H]1C(=O)N2C(C(=O)[O-])=C(C[N+]3(C)CCCC3)CS[C@H]12)c1csc(N)n1; test: as §2
[26] = substrate: CO/N=C(\C(=O)N[C@@H]1C(=O)N2C(C(=O)O)=C(COC(N)=O)CS[C@H]12)c1ccco1; test: as §2
[27] = substrate: CC1(C)S[C@@H]2[C@H](NC(=O)Cc3ccccc3)C(=O)N2[C@H]1C(=O)O; test: (§3) Activity at Pseudomonas aeruginosa 51170 beta-lactamase BEL-1
[28] = substrate: CC(=O)OCC1=C(C(=O)O)N2C(=O)[C@@H](NC(=O)Cc3cccs3)[C@H]2SC1; test: as §3
[29] = substrate: CO[C@@]1(NC(=O)Cc2cccs2)C(=O)N2C(C(=O)O)=C(COC(N)=O)CS[C@@H]21; test: as §3
[30] = substrate: CC(C)(O/N=C(\C(=O)N[C@@H]1C(=O)N2C(C(=O)[O-])=C(C[n+]3ccccc3)CS[C@H]12)c1csc(N)n1)C(=O)O; test: as §3
[31] = substrate: C[C@@H](O)[C@H]1C(=O)N2C(C(=O)O)=C(SCCNC=N)C[C@H]12; test: as §3
[32] = substrate: CCN1CCN(C(=O)N[C@@H](C(=O)N[C@@H]2C(=O)N3[C@@H]2SC(C)(C)[C@@H]3C(=O)O)c2ccccc2)C(=O)C1=O; test: as §3
[33] = substrate: CO/N=C(\C(=O)N[C@@H]1C(=O)N2C(C(=O)O)=C(COC(C)=O)CS[C@H]12)c1csc(N)n1; test: as §3
[34] = substrate: C[C@H]1[C@H](NC(=O)/C(=N\OC(C)(C)C(=O)O)c2csc(N)n2)C(=O)N1S(=O)(=O)O; test: as §3
[35] = substrate: O=C(Cc1cccs1)N[C@@H]1C(=O)N2C(C(=O)[O-])=C(C[n+]3ccccc3)CS[C@H]12; test: as §3
[36] = substrate: CO/N=C(\C(=O)N[C@@H]1C(=O)N2C(C(=O)[O-])=C(C[N+]3(C)CCCC3)CS[C@H]12)c1csc(N)n1; test: as §3
[37] = substrate: CO/N=C(\C(=O)N[C@@H]1C(=O)N2C(C(=O)O)=C(COC(N)=O)CS[C@H]12)c1ccco1; test: as §3
[38] = substrate: CC1(C)S[C@@H]2[C@H](NC(=O)Cc3ccccc3)C(=O)N2[C@H]1C(=O)O; test: (§4) Ratio of Kcat to Km for Pseudomonas aeruginosa 51170 beta-lactamase BEL-1
[39] = substrate: CC(=O)OCC1=C(C(=O)O)N2C(=O)[C@@H](NC(=O)Cc3cccs3)[C@H]2SC1; test: as §4
[40] = substrate: CCN1CCN(C(=O)N[C@@H](C(=O)N[C@@H]2C(=O)N3[C@@H]2SC(C)(C)[C@@H]3C(=O)O)c2ccccc2)C(=O)C1=O; test: as §4
[41] = substrate: CO/N=C(\C(=O)N[C@@H]1C(=O)N2C(C(=O)O)=C(COC(C)=O)CS[C@H]12)c1csc(N)n1; test: as §4
[42] = substrate: C[C@H]1[C@H](NC(=O)/C(=N\OC(C)(C)C(=O)O)c2csc(N)n2)C(=O)N1S(=O)(=O)O; test: as §4
[43] = substrate: O=C(Cc1cccs1)N[C@@H]1C(=O)N2C(C(=O)[O-])=C(C[n+]3ccccc3)CS[C@H]12; test: as §4
[44] = substrate: CO/N=C(\C(=O)N[C@@H]1C(=O)N2C(C(=O)[O-])=C(C[N+]3(C)CCCC3)CS[C@H]12)c1csc(N)n1; test: as §4
[45] = substrate: CO/N=C(\C(=O)N[C@@H]1C(=O)N2C(C(=O)O)=C(COC(N)=O)CS[C@H]12)c1ccco1; test: as §4

Molecule: CO/N=C(\C(=O)N[C@@H]1C(=O)N2C(C(=O)[O-])=C(C[n+]3cccc4c3CCC4)CS[C@H]12)c1csc(N)n1 [CEFPIROME]
- MIC (Pseudomonas aeruginosa [1]): 64 µg/mL (≈ 124 µM)
- MIC (Escherichia coli [2]): 0.06 µg/mL (≈ 0.117 µM)
- MIC (Pseudomonas aeruginosa [3]): 16 µg/mL (≈ 31.1 µM)
- MIC (Escherichia coli [4]): 0.5 µg/mL
- MIC (Escherichia coli [5]): 0.25 µg/mL

Molecule: CC(C)(O/N=C(\C(=O)N[C@@H]1C(=O)N2C(C(=O)[O-])=C(C[n+]3ccccc3)CS[C@H]12)c1csc(N)n1)C(=O)O [CEFTAZIDIME]
- MIC (Pseudomonas aeruginosa [1]): 256 µg/mL (≈ 468 µM)
- MIC (Escherichia coli [2]): 0.06 µg/mL (≈ 0.11 µM)
- Ratio (Pseudomonas aeruginosa [6]): < 3
- MIC (Pseudomonas aeruginosa [3]): 32 µg/mL (≈ 58.5 µM)
- MIC (Escherichia coli [4]): 128 µg/mL
- MIC (Escherichia coli [5]): 16 µg/mL

Molecule: C[C@@H](O)[C@H]1C(=O)N2C(C(=O)O)=C(SCCNC=N)C[C@H]12 [IMIPENEM ANHYDROUS]
- MIC (Pseudomonas aeruginosa [1]): 1 µg/mL (≈ 3.34 µM)

Molecule: CO/N=C(\C(=O)N[C@@H]1C(=O)N2C(C(=O)O)=C(COC(N)=O)CS[C@H]12)c1ccco1 [CEFUROXIME]
- MIC (Pseudomonas aeruginosa [1]): > 512 µg/mL
- MIC (Escherichia coli [2]): 2 µg/mL (≈ 4.71 µM)
- Ratio (Pseudomonas aeruginosa [6]): 300
- MIC (Pseudomonas aeruginosa [3]): > 512 µg/mL
- MIC (Escherichia coli [4]): 32 µg/mL
- MIC (Escherichia coli [5]): 128 µg/mL

Molecule: CCN1CCN(C(=O)N[C@@H](C(=O)N[C@@H]2C(=O)N3[C@@H]2SC(C)(C)[C@@H]3C(=O)O)c2ccccc2)C(=O)C1=O [PIPERACILLIN]
- MIC (Pseudomonas aeruginosa [1]): 16 µg/mL (≈ 30.9 µM)
- MIC (Escherichia coli [2]): 1 µg/mL (≈ 1.93 µM)
- MIC (Pseudomonas aeruginosa [3]): 16 µg/mL (≈ 30.9 µM)
- MIC (Escherichia coli [4]): 32 µg/mL
- MIC (Escherichia coli [5]): 128 µg/mL

B1: Beta-lactamase (Pseudomonas aeruginosa), D2SSQ3 (protein)
chain: MKLLLYPLLLFLVIPAFAQADFEHAISDLEAHNQAKIGVALVSENGNLIQGYRANERFAMCSTFKLPLAALVLSRIDAGEENPERKLHYDSAFLEEYAPAAKRYVATGYMTVTEAIQSALQLSDNAAANLLLKEVGGPPLLTKYFRSLGDKVSRFDRIEPTLNTNTPGDERDTTTPMSMAQTVSKLIFGDTLTYKSKGQLRRLLIGNQTGDKTIRAGLPDSWVTGDKTGSCANGGRNDVAFFITTAGKKYVLSVYTNAPELQGEERALLIASVAKLARQYVVH
- kcat/Km [7]: 300 mM⁻¹ s⁻¹
- kcat/Km [8]: 2200 mM⁻¹ s⁻¹
- kcat/Km [9]: 47 mM⁻¹ s⁻¹
- kcat/Km [10]: 300 mM⁻¹ s⁻¹
- kcat/Km [11]: 290 mM⁻¹ s⁻¹
- kcat/Km [12]: 280 mM⁻¹ s⁻¹
- kcat/Km [13]: 150 mM⁻¹ s⁻¹
- kcat/Km [14]: 10 mM⁻¹ s⁻¹
- kcat/Km [15]: 73 mM⁻¹ s⁻¹
- Km [16]: 4 µM
- kcat [16]: 1.2 s⁻¹
- Km [17]: 2 µM
- kcat [17]: 4.3 s⁻¹
- kcat [18]: < 0.01 s⁻¹
- Km [19]: 0.64 µM
- kcat [19]: 0.03 s⁻¹
- kcat [20]: < 0.01 s⁻¹
- Km [21]: 0.3 µM
- kcat [21]: 1.1 s⁻¹
- Km [22]: 0.45 µM
- kcat [22]: 0.13 s⁻¹
- Km [23]: 0.36 µM
- kcat [23]: 0.1 s⁻¹
- Km [24]: 8 µM
- kcat [24]: 1.2 s⁻¹
- Km [25]: 0.3 µM
- kcat [25]: 0.003 s⁻¹
- Km [26]: 12 µM
- kcat [26]: 0.88 s⁻¹

B2: Beta-lactamase bla(BEL1) (Pseudomonas aeruginosa), Q3SAW3 (protein)
chain: MKLLLYPLLLFLVIPAFAQADFEHAISDLEAHNQAKIGVALVSENGNLIQGYRANERFAMCSTFKLPLAALVLSRIDAGEENPERKLHYDSAFLEEYAPAAKRYVATGYMTVTEAIQSALQLSDNAAANLLLKEVGGPPLLTKYFRSLGDKVSRLDRIEPTLNTNTPGDERDTTTPMSMAQTVSKLIFGDTLTYKSKGQLRRLLIGNQTGDKTIRAGLPDSWVTGDKTGSCANGGRNDVAFFITTAGKKYVLSVYTNAPELQGEERALLIASVAKLARQYVVH
- Km [27]: 20 µM
- kcat [27]: 3 s⁻¹
- Km [28]: 280 µM
- kcat [28]: 150 s⁻¹
- kcat [29]: < 0.01 s⁻¹
- Km [30]: > 700 µM
- kcat [30]: > 1.5 s⁻¹
- kcat [31]: < 0.01 s⁻¹
- Km [32]: 15 µM
- kcat [32]: 2 s⁻¹
- Km [33]: 250 µM
- kcat [33]: 30 s⁻¹
- Km [34]: 100 µM
- kcat [34]: 10 s⁻¹
- Km [35]: 130 µM
- kcat [35]: 30 s⁻¹
- Km [36]: 150 µM
- kcat [36]: 1 s⁻¹
- Km [37]: 40 µM
- kcat [37]: 10 s⁻¹
- kcat/Km [38]: 150 mM⁻¹ s⁻¹
- kcat/Km [39]: 540 mM⁻¹ s⁻¹
- kcat/Km [40]: 130 mM⁻¹ s⁻¹
- kcat/Km [41]: 250 mM⁻¹ s⁻¹
- kcat/Km [42]: 100 mM⁻¹ s⁻¹
- kcat/Km [43]: 230 mM⁻¹ s⁻¹
- kcat/Km [44]: 7 mM⁻¹ s⁻¹
- kcat/Km [45]: 250 mM⁻¹ s⁻¹
